Measurements from patent US10919943B2, “Mutant proteins enabling agrochemical control of plant gene expression” (The Regents of the University of California, priority 2016, dated 2021).

Tested on: HAB1
Assay: Yeast two hybrid of pBD-PYR1 site saturation mutants with pACT-HAB1 on 10 μM ABA, β-galactosidase staining
Assay type: cell-based, Arabidopsis
Parameters: key: x: Mutations in PYR1 that disrupt ABA-induced binding to PYR1 to HAB1
Settings: S. cerevisiae Y190, 10 μM ABA; dead = lack of visible staining in comparison to wild type control
In short: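 S. cerevisiae Y190 co-expressing GAL4-DNA-binding-domain–PYR1 mutants and GAL4-activation-domain–HAB1 were spotted on SD (-Leu, -Trp) agar with 10 μM (+)-ABA for 2 days at 30° C. Colonies were chloroform-lysed and stained for β-galactosidase. Mutants lacking visible staining relative to wild type were scored as non-binding.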

B1: D155Y: PYR1 mutant (protein, UniProt O49686 1-191, looked up, variant D155Y)
Abscisic acid receptor PYR1: MPSELTPEERSELKNSIAEFHTYQLDPGSCSSLHAQRIHAPPELVWSIVRRFDKPQTYKHFIKSCSVEQNFEMRVGCTRDVIVISGLPANTSTERLDILDDERRVTGFSIIGGEHRLTNYKSVTTVHRFEKENRIWTVVLESYVVDMPEGNSEDYTRMFADTVVKLNLQKLATVAEAMARNSGDGSGSQVT
For B1, the “Mutations in PYR1 that disrupt ABA-induced binding to PYR1 to HAB1” value (“Mutations” for short) was “x”.

B2: T156M: PYR1 mutant (protein, UniProt O49686 1-191, looked up, variant T156M)
Abscisic acid receptor PYR1: MPSELTPEERSELKNSIAEFHTYQLDPGSCSSLHAQRIHAPPELVWSIVRRFDKPQTYKHFIKSCSVEQNFEMRVGCTRDVIVISGLPANTSTERLDILDDERRVTGFSIIGGEHRLTNYKSVTTVHRFEKENRIWTVVLESYVVDMPEGNSEDDMRMFADTVVKLNLQKLATVAEAMARNSGDGSGSQVT
B2 was tested, and the “Mutations” value was “x”.

B3: T156G: PYR1 mutant (protein, UniProt O49686 1-191, looked up, variant T156G)
Abscisic acid receptor PYR1: MPSELTPEERSELKNSIAEFHTYQLDPGSCSSLHAQRIHAPPELVWSIVRRFDKPQTYKHFIKSCSVEQNFEMRVGCTRDVIVISGLPANTSTERLDILDDERRVTGFSIIGGEHRLTNYKSVTTVHRFEKENRIWTVVLESYVVDMPEGNSEDDGRMFADTVVKLNLQKLATVAEAMARNSGDGSGSQVT
For B3, the “Mutations” value was “x”.

B4: T156W: PYR1 mutant (protein, UniProt O49686 1-191, looked up, variant T156W)
Abscisic acid receptor PYR1: MPSELTPEERSELKNSIAEFHTYQLDPGSCSSLHAQRIHAPPELVWSIVRRFDKPQTYKHFIKSCSVEQNFEMRVGCTRDVIVISGLPANTSTERLDILDDERRVTGFSIIGGEHRLTNYKSVTTVHRFEKENRIWTVVLESYVVDMPEGNSEDDWRMFADTVVKLNLQKLATVAEAMARNSGDGSGSQVT
With B4 the “Mutations” value was “x”.

B5: T156Y: PYR1 mutant (protein, UniProt O49686 1-191, looked up, variant T156Y)
Abscisic acid receptor PYR1: MPSELTPEERSELKNSIAEFHTYQLDPGSCSSLHAQRIHAPPELVWSIVRRFDKPQTYKHFIKSCSVEQNFEMRVGCTRDVIVISGLPANTSTERLDILDDERRVTGFSIIGGEHRLTNYKSVTTVHRFEKENRIWTVVLESYVVDMPEGNSEDDYRMFADTVVKLNLQKLATVAEAMARNSGDGSGSQVT
B5 was tested, and the “Mutations” value was “x”.

B6: M158P: PYR1 mutant (protein, UniProt O49686 1-191, looked up, variant M158P)
Abscisic acid receptor PYR1: MPSELTPEERSELKNSIAEFHTYQLDPGSCSSLHAQRIHAPPELVWSIVRRFDKPQTYKHFIKSCSVEQNFEMRVGCTRDVIVISGLPANTSTERLDILDDERRVTGFSIIGGEHRLTNYKSVTTVHRFEKENRIWTVVLESYVVDMPEGNSEDDTRPFADTVVKLNLQKLATVAEAMARNSGDGSGSQVT
In the case of B6, the “Mutations” value is reported as “x”.

B7: T156R: PYR1 mutant (protein, UniProt O49686 1-191, looked up, variant T156R)
Abscisic acid receptor PYR1: MPSELTPEERSELKNSIAEFHTYQLDPGSCSSLHAQRIHAPPELVWSIVRRFDKPQTYKHFIKSCSVEQNFEMRVGCTRDVIVISGLPANTSTERLDILDDERRVTGFSIIGGEHRLTNYKSVTTVHRFEKENRIWTVVLESYVVDMPEGNSEDDRRMFADTVVKLNLQKLATVAEAMARNSGDGSGSQVT
In the case of B7, the “Mutations” value is reported as “x”.

B8: D155G: PYR1 mutant (protein, UniProt O49686 1-191, looked up, variant D155G)
Abscisic acid receptor PYR1: MPSELTPEERSELKNSIAEFHTYQLDPGSCSSLHAQRIHAPPELVWSIVRRFDKPQTYKHFIKSCSVEQNFEMRVGCTRDVIVISGLPANTSTERLDILDDERRVTGFSIIGGEHRLTNYKSVTTVHRFEKENRIWTVVLESYVVDMPEGNSEDGTRMFADTVVKLNLQKLATVAEAMARNSGDGSGSQVT
In the case of B8, the “Mutations” value is reported as “x”.

B9: T156K: PYR1 mutant (protein, UniProt O49686 1-191, looked up, variant T156K)
Abscisic acid receptor PYR1: MPSELTPEERSELKNSIAEFHTYQLDPGSCSSLHAQRIHAPPELVWSIVRRFDKPQTYKHFIKSCSVEQNFEMRVGCTRDVIVISGLPANTSTERLDILDDERRVTGFSIIGGEHRLTNYKSVTTVHRFEKENRIWTVVLESYVVDMPEGNSEDDKRMFADTVVKLNLQKLATVAEAMARNSGDGSGSQVT
In the case of B9, the “Mutations” value is reported as “x”.

B10: T156I: PYR1 mutant (protein, UniProt O49686 1-191, looked up, variant T156I)
Abscisic acid receptor PYR1: MPSELTPEERSELKNSIAEFHTYQLDPGSCSSLHAQRIHAPPELVWSIVRRFDKPQTYKHFIKSCSVEQNFEMRVGCTRDVIVISGLPANTSTERLDILDDERRVTGFSIIGGEHRLTNYKSVTTVHRFEKENRIWTVVLESYVVDMPEGNSEDDIRMFADTVVKLNLQKLATVAEAMARNSGDGSGSQVT
In the case of B10, the “Mutations” value is reported as “x”.

B11: D155K: PYR1 mutant (protein, UniProt O49686 1-191, looked up, variant D155K)
Abscisic acid receptor PYR1: MPSELTPEERSELKNSIAEFHTYQLDPGSCSSLHAQRIHAPPELVWSIVRRFDKPQTYKHFIKSCSVEQNFEMRVGCTRDVIVISGLPANTSTERLDILDDERRVTGFSIIGGEHRLTNYKSVTTVHRFEKENRIWTVVLESYVVDMPEGNSEDKTRMFADTVVKLNLQKLATVAEAMARNSGDGSGSQVT
B11 was tested, and the “Mutations” value was “x”.

B12: T156P: PYR1 mutant (protein, listed as Arabidopsis thaliana)
chain: MPSELTPEERSELKNSIAEFHTYQLDPGSCSSLHAQRIHAPPELVWSIVRRFDKPQTYKHFIKSCSVEQNFEMRVGCTRDVIVISGLPANTSTERLDILDDERRVTGFSIIGGEHRLTNYKSVTTVHRFEKENRIWTVVLESYVVDMPEGNSEDDPRMFADTVVKLNLQKLATVAEAMARNSGDGSGSQVT
B12 was tested, and the “Mutations” value was “x”.

B13: T156D: PYR1 mutant (protein, UniProt O49686 1-191, looked up, variant T156D)
Abscisic acid receptor PYR1: MPSELTPEERSELKNSIAEFHTYQLDPGSCSSLHAQRIHAPPELVWSIVRRFDKPQTYKHFIKSCSVEQNFEMRVGCTRDVIVISGLPANTSTERLDILDDERRVTGFSIIGGEHRLTNYKSVTTVHRFEKENRIWTVVLESYVVDMPEGNSEDDDRMFADTVVKLNLQKLATVAEAMARNSGDGSGSQVT
In the case of B13, the “Mutations” value is reported as “x”.

B14: T156F: PYR1 mutant (protein, UniProt O49686 1-191, looked up, variant T156F)
Abscisic acid receptor PYR1: MPSELTPEERSELKNSIAEFHTYQLDPGSCSSLHAQRIHAPPELVWSIVRRFDKPQTYKHFIKSCSVEQNFEMRVGCTRDVIVISGLPANTSTERLDILDDERRVTGFSIIGGEHRLTNYKSVTTVHRFEKENRIWTVVLESYVVDMPEGNSEDDFRMFADTVVKLNLQKLATVAEAMARNSGDGSGSQVT
With B14 the “Mutations” value was “x”.

B15: T156H: PYR1 mutant (protein, UniProt O49686 1-191, looked up, variant T156H)
Abscisic acid receptor PYR1: MPSELTPEERSELKNSIAEFHTYQLDPGSCSSLHAQRIHAPPELVWSIVRRFDKPQTYKHFIKSCSVEQNFEMRVGCTRDVIVISGLPANTSTERLDILDDERRVTGFSIIGGEHRLTNYKSVTTVHRFEKENRIWTVVLESYVVDMPEGNSEDDHRMFADTVVKLNLQKLATVAEAMARNSGDGSGSQVT
In the case of B15, the “Mutations” value is reported as “x”.

B16: D155F: PYR1 mutant (protein, UniProt O49686 1-191, looked up, variant D155F)
Abscisic acid receptor PYR1: MPSELTPEERSELKNSIAEFHTYQLDPGSCSSLHAQRIHAPPELVWSIVRRFDKPQTYKHFIKSCSVEQNFEMRVGCTRDVIVISGLPANTSTERLDILDDERRVTGFSIIGGEHRLTNYKSVTTVHRFEKENRIWTVVLESYVVDMPEGNSEDFTRMFADTVVKLNLQKLATVAEAMARNSGDGSGSQVT
In the case of B16, the “Mutations” value is reported as “x”.

B17: T156E: PYR1 mutant (protein, UniProt O49686 1-191, looked up, variant T156E)
Abscisic acid receptor PYR1: MPSELTPEERSELKNSIAEFHTYQLDPGSCSSLHAQRIHAPPELVWSIVRRFDKPQTYKHFIKSCSVEQNFEMRVGCTRDVIVISGLPANTSTERLDILDDERRVTGFSIIGGEHRLTNYKSVTTVHRFEKENRIWTVVLESYVVDMPEGNSEDDERMFADTVVKLNLQKLATVAEAMARNSGDGSGSQVT
With B17 the “Mutations” value was “x”.

B18: D155I: PYR1 mutant (protein, UniProt O49686 1-191, looked up, variant D155I)
Abscisic acid receptor PYR1: MPSELTPEERSELKNSIAEFHTYQLDPGSCSSLHAQRIHAPPELVWSIVRRFDKPQTYKHFIKSCSVEQNFEMRVGCTRDVIVISGLPANTSTERLDILDDERRVTGFSIIGGEHRLTNYKSVTTVHRFEKENRIWTVVLESYVVDMPEGNSEDITRMFADTVVKLNLQKLATVAEAMARNSGDGSGSQVT
For B18, the “Mutations” value was “x”.

B19: T156L: PYR1 mutant (protein, UniProt O49686 1-191, looked up, variant T156L)
Abscisic acid receptor PYR1: MPSELTPEERSELKNSIAEFHTYQLDPGSCSSLHAQRIHAPPELVWSIVRRFDKPQTYKHFIKSCSVEQNFEMRVGCTRDVIVISGLPANTSTERLDILDDERRVTGFSIIGGEHRLTNYKSVTTVHRFEKENRIWTVVLESYVVDMPEGNSEDDLRMFADTVVKLNLQKLATVAEAMARNSGDGSGSQVT
For B19, the “Mutations” value was “x”.

B20: T156Q: PYR1 mutant (protein, UniProt O49686 1-191, looked up, variant T156Q)
Abscisic acid receptor PYR1: MPSELTPEERSELKNSIAEFHTYQLDPGSCSSLHAQRIHAPPELVWSIVRRFDKPQTYKHFIKSCSVEQNFEMRVGCTRDVIVISGLPANTSTERLDILDDERRVTGFSIIGGEHRLTNYKSVTTVHRFEKENRIWTVVLESYVVDMPEGNSEDDQRMFADTVVKLNLQKLATVAEAMARNSGDGSGSQVT
With B20 the “Mutations” value was “x”.

B21: T156N: PYR1 mutant (protein, UniProt O49686 1-191, looked up, variant T156N)
Abscisic acid receptor PYR1: MPSELTPEERSELKNSIAEFHTYQLDPGSCSSLHAQRIHAPPELVWSIVRRFDKPQTYKHFIKSCSVEQNFEMRVGCTRDVIVISGLPANTSTERLDILDDERRVTGFSIIGGEHRLTNYKSVTTVHRFEKENRIWTVVLESYVVDMPEGNSEDDNRMFADTVVKLNLQKLATVAEAMARNSGDGSGSQVT
In the case of B21, the “Mutations” value is reported as “x”.
